From article PMC8920075

Target: Omikron (Botswana, B.1.1.529) RBD (SARS-CoV-2 (Omicron, B.1.1.529)) (UniProt P0DTC2)
Assay: ELISA

REGN10933 (Casirivimab) (antibody)
EC50: 39.4 nM
